In a protein production outcome set (Wang et al. 2014):

Test: label from the status in PepcDB records
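Note: failed if final PepcDB status was selected cloned or expressed and not failed if soluble or beyond.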

Row | Sequence | protein production
1 | MKETYYFAYGSNMNLDQMAYRCPAASVVEPVHLEGYRLTFCGRGKGSGVATILPEEGSRVEGVLWKITPECEKSLDFYEGYPHLYGKEPVLVQGKDGMKREVMAYTMNAPYKDQPAIPSDLYFMGIVEGCHQNGISSRSVTDALKRVREEVGRQKPSQKKTEVSR | failed
2 | MLPARLPFRLLSLFLRGSAPTAARHGLREPLLERRCAAASSFQHSSSLGRELPYDPVDTEGFGEGGDMQERFLFPEYILDPEPQPTREKQLQELQQQQEEEERQRQQRREERRQQNLRARSREHPVVGHPDPALPPSGVNCSGCGAELHCQDAGVPGYLPREKFLRTAEADGGLARTVCQRCWLLSHHRRALRLQVSREQYLELVSAALRRPGPSLVLYMVDLLDLPDALLPDLPALVGPKQLIVLGNKVDLLPQDAPGYRQRLRERLWEDCARAGLLLAPGHQGPQRPVKDEPQDGENPNPPNWSRTVVRDVRLISAKTGYGVEELISALQRSWRYRGDVYLVGATNAGKSTLFNTLLESDYCTAKGSEAIDRATISPWPGTTLNLLKFPICNPTPYRMFKRHQRLKKDSTQAEEDLSEQEQNQLNVLKKHGYVVGRVGRTFLYSEEQKDNIPFEFDADSLAFDMENDPVMGTHKSTKQVELTAQDVKDAHWFYDTPGITKENCILNLLTEKEVNIVLPTQSIVPRTFVLKPGMVLFLGAIGRIDFLQGNQSAWFTVVASNILPVHITSLDRADALYQKHAGHTLLQIPMGGKERMAGFPPLVAEDIMLKEGLGASEAVADIKFSSAGWVSVTPNFKDRLHLRGYTPEGTVLTVRPPLLPYIVNIKGQRIKKSVAYKTKKPPSLMYNVRKKKGKINV | failed
3 | FEERSGVVPCGTPWGQWYQTLEEVFIEVQVPPGTRAQDIQCGLQSRHVALAVGGREILKGKLFDSTIADEGTWTLEDRKMVRIVLTKTKRDAANCWTSLLESEYAADPWVQDQMQRKLTLERFQKENPGFDFSGAEISGNYTKGGPDFSNLEKDGT | not failed
4 | YLKVFDLDWHPDGMLDAKPALASADWKGLAELAQLSHKALEDAGLPQFEGSNAWAISGSRTQSGKPILAGDPHIRFSVPSVWYEAQLSAPGFELYGHFPALNPFAFLGHNMDFGWSLTMFQNDDVDLIAEKTNPDNPNQVWYHGQWVDMKRTEQQIAVKGQAPVTLTLIESPHGPIVNNVMGKNAGQTPIAMWWSFLVSANPVLDGFYDANRADTLDKMRSAAEKIQSPGLNIVWANAKGDIGWWAAAQLPIRPEGVNPGFILDGSTAQADKLGFYPFSANPHEENPARGYIVSANFQPLSPTGMQIPGYYNPAERGQELNRQLSDSSIKWDLAASKALQLSTQTDYAPSILRPLIPVLRSAISDPDELALVERLASWKGDYPVDSVGATLFN | failed
5 | PDVSVQEMVSAYTTFVNKGIRVNPLPITRIEDQYGNVVAQFSPNMVEVLPPDAAYKMLYMLKSVVDGGTGSRLRYRYGFKLDMGGKTGTTQNNSD | failed
6 | MELLKEYNPYLEYRDGELFIEGVSLKELAQTFGTPLYVYSSNFIKERFEAYRKAFPDALICYAVKANFNPHLVKLLGELGAGADIVSGGELYLAKKAGIPPERIVYAGVGKTEKELTDAVDSEILMFNVESRQELDVLNEIAGKLGKKARIAIRVNPDVDPKTHPYIATGMQKSKFGVDIREAQKEYEYASKLENLEIVGIHCHIGSQILDISPYREAVEKVVSLYESLTQKGFDIKYLDIGGGLGIKYKPEDKEPAPQDLADLLKDLLENVKAKIILEPGRSIMGNAGILITQVQFLKDKGSKHFIIVDAGMNDLIRPSIYNAYHHIIPVETKERKKVVADIVGPICETGDFLALDREIEEVQRGEYLAVLSAGAYGFAMSSHYNMRPRAAEVLVENGSVKLIRKRENYDYIVEPSLDI | not failed
7 | RLKLLYDAGLGIGTTLDVLRTADELAQVAVPRFADFVTVDLADAVLHGEEPAPTATDLRRTAVCGIRDDHPLYELGQLIDFLPSTPQARGYGSGYSELVTDLSTATGWHAQDPERTKAIIDYGIHSLIAAPIQARGVVLGMANFWRSKQHEPFVEEEMSLAEELVARAAVSIDNARRYTREHALAVTLQRSL | not failed
8 | MKVIKTAPLIPSEIKVLEKEGNRVKISLAPFEFGYAVTLAHPIRRLLLLSSVGYAPVGLKIEGVHHEFDSLRGVTEDVSLFIMNLKNIRFIAKALVGQDSSLENQSVVVDYSFKGPMELRARDLNSEQIEIVNPEMPLATINEDAQLNFSLIIYKGMGYVPSENTRELMPEGYMPLDGSFTPIKKVVYEIENVLVEGDPNYEKIIFDIETDGQIDPYKAFLSAVKVMSKQLGVFGERPIANTEYSGDYAQRDDAKDLSAKIESMNLSARCFNCLDKIGIKYVGELVLMSEEELKGVKNMGKKSYDEIAEKLNDLGYPVGTELSPEQRESLKKRLEKLEDKGGND | failed
9 | MKQKSQMETRFVKPLSCLTLSIITTIGILPPATAQETSPAKSACEQVLSNAEQKPLTKQVQKLAQFADPQQERSQMIQQANALFSQGDLPGAEENLCKFLKKYSDDAFGHFQLGNVFFRGKKVEAAISAYQEAIRLRSRYAVAYNALGIVYASQSRWSEAIVQYQKALEINPDYGDALTNVALALWQTNKKDEALASLEKALNIFKKQNRNEKANQVEQLLQRIKNSDDNLS | failed
10 | MSLLDAHIPQLIASHTAFAAKAGLMRHTIGQAEQQAMSAQAFHQGESAAAFQGAHARFVAAAAKVNTLLDIAQANLGEAAGTYVAADAAAASSYTGF | failed
11 | MERHVPEPTHTLEGWHVLHDFRLLDFARWFSAPLEAREDAWEELKGLVREWRELEEAGQGSYGIYQVVGHKADLLFLNLRPGLDPLLEAEARLSRSAFARYLGRSYSFYSVVELGSQEKPLDPESPYVKPRLTPRVPKSGYVCFYPMNKRRQGQDNWYMLPAKERASLMKAHGETGRKYQGKVMQVISGAQGLDDWEWGVDLFSEDPVQFKKIVYEMRFDEVSARYGEFGPFFVGKYLDEEALRAFLGL | not failed
12 | MSEDLMDLSPEEGIERFLRHREPSVRESTMRNAKTRLRFFNEWCEERDIENLNNLTGRDLADFVAWRRGDIAALTLQKQLSTIREALRYWADIEGVDDGLAEKVHAPELEHHHHHH | failed
13 | MTFASPDDVIRRFDEQNYLLDTGTASAIYLAVTLGRPLLLEGEPGVGKTTAAKTLAVVLDTTLIRLQCYEGLTANEALYDWNYQRQLLSIRLAEARGKGISDISEADLYTEAYLVDRPILRCVRHRGPTPPVLLIDEIDRADDEFEALLLEFLGESAVTVPELGTFLAECPPIAVLTSNRSRDLHDALRRRCLYHWIDYPEPDRAAAIVRRTVPGATAPLIENATQFVCTARDLDLDKPPGVAETIDWVAALVALGVADLTAADSSPALASLGALAKTPDDRTQIRDAYQAFTECSHA | failed
14 | MFTMDDLNQMDTQTLTDTLGSIFEHSSWIAERSAALRPFSSLSDLHRKMTGIVKAADRETQLDLIKKHPRLGTKKTMSDDSVREQQNAGLGKLEQQEYEEFLMLNEHYYDRFGFPFILAVKGKTKQDIHQALLARLESERETEFQQALIEIYRIARFRLADIITEKGETQMKRTMSYGKGNVFAYRTYLKPLTGVKQIPESSFAGRDNTVVGVDVTCEIGGEAFLPSFTDGDNTLVVATDSMKNFIQRHLASYEGTTTEGFLHYVAHRFLDTYSHMDTITLTGEDIPFEAMPAYEEKELSTSRLVFRRSRNERSRSVLKAERSGNTITITEQYSEIMDLQLVKVSGNSFVGFIRDEYTTLPEDGNRPLFVYLNISWQYENTNDSYASDPARYVAAEQVRDLASTVFHELETPSIQNLIYHIGCRILARFPQLTDVSFQSQNHTWDTVVEEIPGSKGKVYTEPRPPYGFQHFTVTREDAEKEKQKAAEKCRSLKA | failed
15 | MLSTTTIGFPRIGNQRQLKFAMESYFKGDSGEAELLAVAHKVQSDAWALQKAAGIAVIGLDGTLYDQVLDTITWLGAIPPRFKHLSGLQRYYAMARGGAALDMSKFFDTNYHYLVPELGPDVLGPATAAGAPLQPDFSGPLDKLARGQAVVGRERAVPILIGPVTFVSLSRGCELPLDQAVARLLPTYCALLQQLAAAGAPEVQLHEPVLATSEGAGMRAEFETAYAQMAQAAGSVPLHLVTYYDDLGAAYPWAVQLPVAAVTLDFLGPPGAAVPSQTLALLQQHGFPADKRLGAGVVDGRSVWKDDGTAVALLRALLDTGAVSSDRLVVTSSAPLQHLPYDLGLELEAPKTPEAEPHLPPALAARLGFAKQKVEEIVSVARLAASPAAAAAAAGHGAVVQLQRLQQGKGVEDHTADIPAEWFSRPKPYDVRREQQLQLPAFPTTTIGSFPQTAEVRRLRQQLKSGRLTQAEYEGLIAGHIAHAVGVQEALGIDVLVHGEAERTDMVEYFGMQLGGMLFTRAGWVQSYGSRCVRPPLVVDDITYRGPMTCWEYKVASAYTRKPVKGMLTGPVTILNWSFPRKDISRAAQAMQLGLALRQEVAALEAAGCTIIQVDDPALREGLPLKRERWASYLSWAVDAFRLCTGVAAAGTQVVTHLCYSDFQDILPAIDRMDADVLTIENSRSDNAMMAALAAAGYGRDIGPGVYDVHSPVVPSVEFIKSRIRSFVDSGILSGRYDRIWVNPDCGLKTRGWPETIAALRNMVEAAAQARAELQLAGGAAVAPVAGGVEAAGKGAALGAAAGTSRCVDCCH | not failed
16 | MAAAAAAAAAAGAAGGRGSGPGRRRHLVPGAGGEAGEGAPGGAGDYGNGLESEELEPEELLLEPEPEPEPEEEPPRPRAPPGAPGPGPGSGAPGSQEEEEEPGLVEGDPGDGAIEDPELEAIKARVREMEEEAEKLKELQNEVEKQMNMSPPPGNAGPVIMSIEEKMEADARSIYVGNVDYGATAEELEAHFHGCGSVNRVTILCDKFSGHPKGFAYIEFSDKESVRTSLALDESLFRGRQIKVIPKRTNRPGISTTDRGFPRARYRARTTNYNSSRSRFYSGFNSRPRGRVYRGRARATSWYSPY | failed
17 | MPRFSTACLDWESRIVNRESLIPFAPLFPTEAEAALDVFKSLQITDLPQVYDRKLGRHRHPTFGESCEQYVFDFVSAIFGAYDEESAKRVIEEFFLLISKKNIKSTLAAGIMLTALIRNWRHNQELLILAPTQEVAGNSFNPAASMVAADPDLTILLHVNKNTKEITHTLTKAVLKIVSADSNTAAGKKAAFVLIEELWLFGKKANAAAMLQEATGGLISRPEGFVIYITTQSDEPPAGVFKEKLDYFRDVRDGKIDDPTSLGVLYEFPDPMIDNEAYLDPANWYVTNPNMGRSVRKDWLERKLLKIQSGEDEEGDTWQSFLAKHLNVEIGMRQRGNRWPGANYWERAADPELAVLDHFAALDRFLERSEVVVVGVDGGGLDDLFGLTLVGREPDEIEIPVMVNGRESLVKMKRWLTWSHAWCHRDVLKRRKKIAPVLTDFDKAGHLTIVDAALEDLASIVDIIGTVKASGLLSSVAVDPAGLGEFVDALASPEIDITQENGLLVGVPQGFALMNAIKTAERRLSNGMLRHAGGPLMPWCVANLKIEPTATAIRATKQTAGDAKIDPAMALFDAVTMMVKNPEAPIASVYAERGIRVV | failed
18 | MSLRIGVIGLGRIGTIHAENLKMIDDAILYAISDVREDRLREMKEKLGVEKAYKDPHELIEDPNVDAVLVCSSTNTHSELVIACAKAKKHVFCEKPLSLNLADVDRMIEETKKADVILFTGFNRRFDRNFKKLKEAVENGTIGKPHVLRITSRDPAPPPLDYIRVSGGIFLDMTIHDFDMARYIMGEEVEEVFADGSVLVDEEIGKAGDVDTAVVVLRFKSGALGVIDNSRRAVYGYDQRIEVFGSKGRIFADNVRETTVVLTDEQGDRGSRYLYFFLERYRDSYLEELKTFIKNVKSGEPPAVSGEDGKMALLLGYAAKKSLEEKRSVKLEEVIGEGHHHHHH | not failed
19 | MAGSVGEETEPEWIKRVKLEGAVPCLKPDDNCKNGWTTPSPDTFMVRGPKYFSDKVKIPAGDFLLKPLGFDWIKGPKKLSEILSYPSSRIRKVIDEEFQKDGTKPFVWAFNLQLPHKDNYSAVAYFVTTEPILEGSLMDRFLKGDDGFKKSRLKLIANIVKGPWIVRKAVGEQAICVIGRALSCKYVSGENFVEIDVDIGSSMVASAIVHLAFGYVTTLTVDLAFLIESQTEAELPEKLLGAVRFSELQTESATSIELSSSTSNDQWDQTTSERSSWWKSIGNGFSNLLNQDTANMNNTSHGDIQKDEHVQKQ | failed
